Results from the nanobody polyreactivity screen of Harvey et al. (2022).

assay: yeast display, Sf9 membrane polyspecificity reagent, FACS + sequencing; frameworks hold sequencing errors
Outline: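 Nanobodies from a synthetic yeast display library (Saccharomyces cerevisiae BJ5465), induced 36–48 hours with galactose, were stained 1 hour at 4 °C with 10% biotinylated, detergent-solubilized Sf9 membrane reagent, enriched on streptavidin microbeads, then FACS-sorted. Anti-HA (expression) and streptavidin (reagent binding) fluorescence set low and high (top ~1%) gates. Polyreactivity labels come from the gate of origin. Genes were colony-PCR amplified, MiSeq 2 × 250 sequenced and filtered by CDR length.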

Sequence	polyreactivity (PSR sort gate)
QVQLVESGGGLVQAGGSLRLSCAASGLTFQVYAMGWYRQAPGKERELVAGITRAGSTYYADSVKGRFTISRDNAKNTVYLQMNSLKPEDTAVYYCAARQPPPYYYWGQGTQVNVSS	high polyreactivity
QVQLVESGGGLVQAGGSLSLSCAASGRTLIRNAMGWYRQAPGKGRELVAAINSGGITNYADSVKGRFTISRDNAKNTVYLQMNSLKPEDTAVYYCNDRQVLYGLYLRAYPYEYWGQGTQVTVSS	low polyreactivity
QVQLVESGGGLVQAGGSLRLSCAASGLTSYDNTMGWYRQAPGKERELVARIRRTGGGTYYADSVKGRFTISRDNAKNTVYLQMNSMKPEDTAVYYCAATITPYDYDYIWFVYSDHDYWGQGTQVTVSS	low polyreactivity
QVQLVESGGGLVQAGGSLRLSCAASGITFFGYAMGWYRQAPGKERELVAAISTRGGSTYYADSVKGRFTISRDNAKNTVYLQMNSLKPEDTAFYYCNKEYYHKWAPTYDYWGQGTQVTVSS	low polyreactivity
PVQLQQSGSGLVQAGGSLRLSCAASGYISLGDNKGWYRQAPGKEREFDATISVGGITYYVDSVKGPFTISRDIAKNTVYLQMNSVKPEDTAVYYCAALDIYYLRYYYWGQGTQVTLSS	low polyreactivity
QVQLVESGGGLVQAGGSLRLSCAASGRTFKYYAMGWYRQAPGKERELVAGISSTGRTNYADSVKGRFTISRDNAKNTVYLQMNSLKPEDTAVYYCNAERKSFGKFDYWGQGTQVTVSS	high polyreactivity
QVQLVESGGGLVQAGGSLRLSCAASGRIFPAYAMGWYRQAPGKERELVAAITGGGSTNYADSVKGRFTISRDNAKNTVYLQMNSLKPEDTAVYYCNAVTGTYGWAPQAREQEDYWGQGTQVTVSS	low polyreactivity
QVQLVESGGGLDQAGGSLRLSCAASGFTFGYYAMGWYRQAPGKERELVATIDRGGGTSYADSVKGRFTISRDNAKNTVYLQMNSLKPEDTAVYYCNRAGYGAKARRYRSYWGQGTQVTVSS	high polyreactivity
QVLLVESGGGLVQAGGSIRLSCDASGLTFYQNSMGWYRQAPGKERELVAAISSTRITNYADSVKVRFTLSRDNAKTPVYLQMNSLIPEDTAVYYCNADYHPFFFEFIYWGQGTQGTVSS	high polyreactivity
QVQLVESGGGLVQAGGSLRLSCAASGFTFQYYAMGWYRQAPGKERELVAAITRGDSTNYADSVKGRFTISRDNAKNTVYLQMNSLKPEDTAVYYCAKSVRYPASDYWGQGTQVTVSS	low polyreactivity
QVQLVESGGGLVQAGGSLRLSCAASGSIFIPNAMGWYRQAPGKERELVAAISLSDTTTYYADSVKGRFTISRDNAKNTVYLQMNSLKPEDTAVYYCNKLTYGRVWDHHYDYWGQGTQVTVSS	low polyreactivity
QVQLVESGGGFVQAGGSLRLSCAASGSTLPYYAMGWYRQAHGKERELVADITARGGTYYADSVKGRFTISRDNAKNTVYLQMNSLKPEDTAVYYCAAAYSLWQFYWDQGYDYWGQGTQVTVSS	high polyreactivity
QVQLVESGGGLVQAGGSLRLICAASGFIFSAYAMGWYRQAPGKERELVAAISYSGGTTYYADSVKGRFTISRDNAKNTVYLQMNSLKPEDTAVYYCAAGVGYWGQGTQVTVSS	high polyreactivity
QVQLVESGGGLVQAGGSLRLSCAASGLTFSRYAMGWYRQAPGKERELVATIRSAGSTYYADSVKGRFTISRDNAKNTVYLQMNTLKPEDTAVYYCATAPYYHVKQRYYYWGQGTQVTVSS	high polyreactivity
QVQLEESGGGLVQAGGSLRLSCAASGSIFSPNAMGWYRQAPGKERELVAAISSNGVSTYYADSVKGRFTISRDNAKNTVYLQMNSLKPEDTAVYYCAAVSIGPGEYDYWGQGTQVTVSS	low polyreactivity
QVQLVESGGGLVQAGGSLRLSCADSGRILPFYAMGWYRQAPGKERELVADISLSGGDTYYADSVKGRFTISRDNAKNTVYLQMNSLKPEDTAVYYCAKDRYQWLWSPEYDYWGQGTQVTVSS	low polyreactivity
QVQLVESGGGLVQAGGSLRLSCAASGRIFVINAMGWYRQAPGKERELVAAIRSGGSTNYADSVKGRFTISRDNAKNTVYLQMNSLKPEDTAVNYCAARNSGRRSKAYDFKMNYWGQGTQVTVSS	high polyreactivity
QDQLVESGGGLVQEGGSLRLSCAASVRIFGPYAMGWYRQAPGKERELLAAITRGGSTSYADSVKGRFTISRDNAKNTVYLQMNSLKPEDTAVYYCAADTLRWWDGFDYWGQGTQVTVST	low polyreactivity
QVQLVESVGGLVQAGGSLRLSCAASGSTLYPYAMGWYRQAPGKERELVAVITLRGGSTYYADSVKGRFTISRDNAKNTVYLQMNSLKPEDTAVYYCAARKRPFYKYDYWGQGTQVTVSS	high polyreactivity
QVQLVESGGGLDQEGGSLRLSCAASGRIFARNAMGWYRQAPGKERELVAAIRNSDGSTYYADSVKGRFTISRDNAKNTVYLQMNSLKPEDTAVYYCAARSGSYRKYGYWGQGTQVTLSS	high polyreactivity
QVQLVESGGGLVQAGGSLRLSCAASGSILLIYAMGWYRQAPGKERELVAGITRGGSTNYADSVKGRFTISRDNAKNTVYLQMNSLKPEDTAVYYCASDGGPARYLVSDRDYWGQGTQVTVSS	low polyreactivity
QVQLVESGGGLVQAGGSLRLSCAASGRIFYSNAMGWYRQAPGKEREFVAAISWSGGGTYYADSVKGRFTISRDNAKNTVYLQMNSLKPEETAVYYCAAVFGYSWAFEYDYWGQGTQVTVSS	low polyreactivity

Sequence	polyreactivity (PSR sort gate)
QVQLVESGGGLVQAGGSLRLSCAASGRIFGVYAMGWYRQAPGKDRELVAAITSSGGRTYYADSVKGRFTISRDNAKNTVYLQMNSLKPEDTGVYYCAALGWSRRGKFNYWGQGTQVTVSS	high polyreactivity
QVQLVESGGGLVQAGGSLRLSCAASGRTFRYYAMGWYRQAPGKERELVAAISVRTGSTSYADSVKGRFTISRDNAKNTVYLQMNSLKPEDTAVYYCNAPQPGKGRTRTRYYYWGQGTQVTVSS	high polyreactivity
QVHLVESGGGLVQAGGSLRLSCAASGRTLAPNAMGWYRQAPGKERELVATITRGGTTNYADSVKGRFTISRDNAKNTVYLQMNSLKPEDTAVYYCAAGYPSWYYGYPYDSWGQGTQVTVSS	low polyreactivity
QVQLVESGGGLVQAGGSLRLSCAASGSIFGPYAMGWYRQAPGKDRELVAAISLGGGSTSYADSVKGRFTISRDNAKNTVYIQMNSLKPEDTAVYYCNAEYYSGPYGYNGFDYWGQGTQVTVSS	low polyreactivity
QVQLVESGGGLVQAGGSLRLSCAASGSTFGRYVMGWYRQAPGKEWELVAAISKNAGSTYYADSVKGRFTISRDNAKNTVYLQMNSLKPEDTAVYYCAADWRTKGYDSLGQGTQVTVSS	high polyreactivity
QVQLVESGGGLVQAGGSLRLSCAASGNTFSWYAMGWYRQAPGKERELVAVIRDGSTYYADSVKGRFTISRDNAKNTVYLQMNRLKPEDTAVYYCRYDIWVWWSGAYDYWGQGTQVTVSS	low polyreactivity
QVQLVESGGGLVQAGGSLRLSCAASGRTFRLNAMGWYRQAPGKERELVAAINTGGGTYYADSVKGRFTISRDNAKNSVYLQMNSLKPEDTAVYYCNACTRYGSFSYVKYDWGQGTQVTVSS	high polyreactivity
QVQLVESGGGLVQAGGSLRLSCAAYGIIFTDYAMGWYRQAPGKERELVAANSSGGGSTYYADSVKGRFTISRDNAKNTVYLQMNSLKPEDTAVYYFAAQSSGSYGFDHWGQGTQVTVSS	high polyreactivity
QVQLVESGGGLVQAGGSLRLSCAASGIIFPFYAMGWYRQAPGKERELVAAITSGDDTYYADSVKGRFTISRDNAKNTVYLQMNSLKPEDTAVYYCNKRLYIAGYWPQLYYIMDYWGQGTQVTVSS	low polyreactivity
QVQLVESGGGLVQAGGSLRLSCAAYGRTFSWNAMGWYRQAPGKERELVAGITGRGRSTYYADSVKGRFTISRDNAKNTVYLQMIRLKPEDTAVYYCAARNWQALYYGYGYDYWGHGTQVTVSS	high polyreactivity
QVQLVESGGGLVQAGGSLRLSSAASGSIFWYYAMGWYRQAPGKERELVADITIRGGRTYYADSVKGRFTISRDNAKNTVYFQMNSLKPEDTAVFYCAADWEYWGFGLYDYWGQGTQVTVSS	low polyreactivity
QVQLQESGGLVQAGGLRLSCAASGYVSYQEAMGWYRQAPGKEREIVATISFGANTNYADSVKGRFTISRDNAKNTVYLQMNSLKPEDTAVYYCAAESLFDVYYGYWGQGTQVTVSS	low polyreactivity
QVQLVESGGGLVQAGGSLRLICAASGSIFKIYAMGWYRQAPGKERELVARITRRGGRTNYADSVKGRFTISRDNAKNTVYLQINSLKPEDTAVYYCAATVYPSVYGENHYGYWGQGTQVTVSS	high polyreactivity
QVQLVESGGGLVQAGGSLRLSCPASGLIYYRYVMGWYRQAPGKERELVAAISGNGASTYYADSVKGRFTISRDNAKNTVFLQMNSLKPVDTAVYYCNADVYVSSKTHSSYPQWWGYDYWGQGTQVTVSS	low polyreactivity
QVQLVESGGGLVQAGGSLRLSCAASGRTFAIYVMGWYRQAPGKERELVAAISRSGGNTYYADSVKGRFTISRDNAKNTVYLQMNSLKPEDTAVYYCAARVRERYYWGQGTQVTVSS	high polyreactivity
QVQLVESGGGLVQAGGSLRLSCAASGRNFYLYGMGWYRQAPGKERELVAAIDWSDGSTYYADSVKGRFTISRDNAKNTVYLQMNSLKPEDTAVYYCAADGWAAWLYDYWGQGTQVTVSS	low polyreactivity
QVQLVESGGGLVQAGGSLRLSCAPSGITFRQFTMGWYRQAPGKERELVAAITSSGRTYYADSVKGRFTISLDNAKNTVYLQMNSLKPEDTAVYYCAAGVGGAAHPVSYFTYDYWGQGTQVTVSS	high polyreactivity
QVQLVESGGGLVQAGGSLRLTCSASGFIFRYYAKGWSRQAPGKERELVAAISTSGGSTYYADSVKGRFTISRDIAKNTVYLQMNSLKPEDTAVYYCAASTNTDRDFWGQGTQVTVSS	high polyreactivity
HVQQQESGGGLVQAGGSLRLSCAASGYISVVIGMCWYRQSPGKERELVASIAYGAITYYTDRVKGRFTISRDYAKNTEYLQMNSLKAEDTAVYYCAADQPPLAYHWYWGQGTQATVSS	high polyreactivity
QVQLVESVGGLVQAGGSLRLSCAASGRIFVHYVMGWYRQAPGKERELVAAISRSGGRTYYADSVKGRFTISRDNAKNSVYLQMNSLKPEDTAVYYCATDASTYKYDYWGQGTQVTVSS	high polyreactivity
QVQLVESGGGLVQAGGRLRLSCAASGSIFGGNDMGWYRQPPGKERELVAAITSSGGSTYYADSVKGRFTISRDNAKNTVYLQMYSLKPEDTAVYYCNADYYGPYRDYGYWGQGTQVTVSS	low polyreactivity
